Measured values taken from article PMC9864903, “Imaging of the Glucose-Dependent Insulinotropic Polypeptide Receptor Using a Novel Radiolabeled Peptide Rationally Designed Based on Endogenous GIP and Synthetic Exendin-4 Sequences” (Pharmaceuticals, 2022).

Tests used:
[1] = ex vivo organ distribution in Sprague Dawley rats; conditions: rat, i.v.
Protocol: The in vivo organ distribution of [^68Ga]Ga-C803-GIP was assessed in Sprague Dawley rats (324 ± 36 g, male, n = 16). The radiotracer was administered into the tail vein of unsedated animals as a bolus in 0.5–0.6 mL of PBS as the vehicle. The animals received 4.1 ± 2.2 MBq/kg ^68Ga]Ga-C803-GIP corresponding to 2.4 ± 1.3 µg/kg peptide mass.
The in vivo organ distribution was conducted for 5 to 180 min, euthanizing two animals at each of eight time points (5, 10, 20, 40, 60, 90, 120, or 180 min). Samples of blood, heart, lung, liver, pancreas, spleen, adrenal, kidney, small intestine (without/with its content), large intestine (without its content), feces, urinary bladder (rinsed), testis, muscle, bone, bone marrow, thyroid, and brain were immediately harvested, weighed, and measured for radioactivity (gamma counter). The organ uptake of [^68Ga]Ga-C803-GIP was corrected for radioactivity decay to the time point of administration and expressed as standardized uptake values (SUVs, Equation (1)). (1) SUV (1/1)=Radioactivitytissue (Bq)/Weighttissue(g)/Radioactivityinjected (Bq)/Weightbody(g)
The competition experiments were designed and guided by the results of the organ distribution study. Based on the observed rapid clearance of [^68Ga]Ga-C803-GIP from the pancreas (known to contain the GIPR), 20 min post-administration was the time point selected for the blocking studies. The rats (351 ± 23 g, male, n = 8) were administered [^68Ga]Ga-C803-GIP (18.4 ± 3.7 MBq/kg; 10.7 ± 2.2 µg/kg). A high radioactive dose was selected to potentially increase the tissue signal. Half of them (n = 4) received [^68Ga]Ga-C803-GIP alone, while the other half was co-injected with 1 mg/kg of non-labeled C803-GIP. The animals were sacrificed 20 min after the administration of [^68Ga]Ga-C803-GIP, and the tissue uptake of the tracer was analyzed as described above.

[2] = dynamic PET/CT organ distribution in pig; assay type: in vivo; conditions: liver, total radioactivity, dynamic PET/CT
Text: An anesthetized pig (25 kg) was positioned to include the abdomen with pancreas in the center of the 25 cm axial field of view of a Discovery MI PET/CT scanner (GE Healthcare, MI, USA) by assistance of a low-dose CT scout view (140 kV, 10 mAs). The details of the animal handling, preparation, and anesthesia have been previously described.
Attenuation correction was acquired by a 140 kV, 10–80 mA CT examination. The administration of [^68Ga]Ga-C803-GIP (17.3 MBq, corresponding to approximately 2.5 μg peptide or 0.10 μg/kg) was made upon the start of the baseline dynamic scan lasting for 90 min (30 frames; […]). The dynamic scan was followed by a static scan over the brain from 90–120 min post administration. A second PET investigation was performed after an additional 2 h to allow the radioactivity from the first scan to fade from the circulation by decay and excretion.
The GIP(1-42) infusion was continued until the end of the PET scan. Finally, after the last PET scan, a contrast-enhanced CT scan was performed to assist delineation of the tissues, e.g., the pancreas.
Segmentation of the tissues of interest (descending aorta, pancreas, spleen, kidney, liver, and muscle) was performed in PMOD (PMOD Technologies), and time–activity curves were expressed as SUV as detailed above.

[3] = assay type: in vitro ADME; conditions: 37 °C, polyacrylamide gel electrophoresis with autoradiography
Protocol: Stability of [^68Ga]Ga-GIP-C803 was studied in human plasma, wherein the agent was incubated at 37 °C for under 30 s, 5 min, 45 min, and 90 min. Thereafter, the samples were analyzed by polyacrylamide gel electrophoresis. To enable the interpretation of the results, a number of references were applied along with the molecular weight marker (Figure S2). The gel was imaged by GelDoc Go Imaging System (Biorad, Hercules, CA, USA) for protein/peptide signals and, thereafter, exposed to a phosphor-imager screen overnight and digitalized using the Cyclone Phosphor Imager system (PerkinElmer) for radioactivity signals. The amount of the sample radioactivity loaded on the gel was controlled by a reference drop of the same sample volume on a filter paper exposed to the same screen. The images were analyzed by ImageJ (NIH, Bethesda, MD, USA) and Image Lab (Biorad) software.
Radiolabeling of C803‐GIP
Figure 1S. Typical HPLC-chromatograms with UV absorption profile (lower panel) and radioactivity signal profile (upper panel) of [68Ga]Ga-C803-GIP.
Stability of [68Ga]Ga‐GIP‐C803 in human plasma
Stability of [68Ga]Ga-GIP-C803 was studied in human plasma, wherein the agent was incubated at 37 °C for under 30 seconds, 5 min, 45 min and 90 min. Thereafter, the samples were analyzed by polyacrylamide gel electrophoresis. […] The images were analyzed by ImageJ (NIH, US) and Image Lab (Biorad) software. […]

CC[C@H](C)[C@H](NC(=O)[C@H](CO)NC(=O)[C@H](Cc1ccc(O)cc1)NC(=O)[C@H](CC(=O)O)NC(=O)[C@H](CO)NC(=O)[C@@H](NC(=O)[C@H](Cc1ccccc1)NC(=O)[C@@H](NC(=O)CNC(=O)[C@H](CCC(=O)O)NC(=O)[C@@H](C)NC(=O)[C@@H](N)Cc1ccc(O)cc1)[C@@H](C)O)[C@@H](C)CC)C(=O)N[C@@H](C)C(=O)N[C@@H](CC(C)C)C(=O)N[C@@H](CC(=O)O)C(=O)N[C@@H](CCCCN)C(=O)N[C@H](C(=O)N[C@@H](Cc1c[nH]cn1)C(=O)N[C@@H](CCC(N)=O)C(=O)N[C@@H](CCC(N)=O)C(=O)N[C@@H](CCC(=O)O)C(=O)N[C@@H](Cc1ccccc1)C(=O)N[C@H](C(=O)N[C@@H](CCC(=O)O)C(=O)N[C@@H](Cc1c[nH]c2ccccc12)C(=O)N[C@@H](CC(C)C)C(=O)N[C@@H](CCCCN)C(=O)N[C@@H](C)C(=O)NCC(=O)NCC(=O)N[C@@H](Cc1c[nH]cn1)C(=O)N1CCC[C@H]1C(=O)N[C@@H](CO)C(=O)NCC(=O)N[C@@H](C)C(=O)N1CCC[C@H]1C(=O)N1CCC[C@H]1C(=O)N1CCC[C@H]1C(=O)N[C@@H](CO)C(=O)N[C@@H](CSCCS(=O)(=O)CCN1CCN(CC(=O)O)CCN(CC(=O)O)CCN(CC(=O)O)CC1)C(N)=O)[C@@H](C)CC)[C@@H](C)CC [[^68Ga]Ga-C803-GIP, metal not drawn]
SUV at 5 min ([1]; male, Sprague Dawley, liver, iv, total radioactivity, 5 min post-administration, read-out: liver uptake): < 1 SUV
liver washout with respect to the 5 min time point, within 1 h [1]: 50%
liver washout with respect to the 5 min time point, within 3 h [1]: 75%
kidney uptake ([1]; within 3 h): 85.5 ± 1.6 SUV
SUV at 0.5 h ([2]; read-out: uptake in the liver after 30 min): < 1 SUV
SUV at 1.5 h ([2]; read-out: uptake in the liver after 90 min): ~0.5 SUV
time stable in human plasma ([3]; incubated <30 s, 5, 45, 90 min): at least 90 min
stability in human plasma (in words) ([3]; up to 90 min): stable
